The target of experiment [1] is T1, GST-DVL1 PDZ domain fusion protein (human, UniProt O14640 247-339).
T1 construct: also called human dishevelled segment polarity protein homolog; not shown: glutathione S-transferase encoded by vector pGEX-3X (Pharmacia)
T1 sequence: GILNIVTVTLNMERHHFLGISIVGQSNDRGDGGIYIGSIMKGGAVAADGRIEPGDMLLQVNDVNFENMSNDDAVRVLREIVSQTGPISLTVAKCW
Kind of experiment: A/G plate assays, Table 2 matrix.

The target of experiment [2] is T2, GST-mouse syntenin fusion protein (Mus musculus, UniProt O08992 108-286).
T2 construct: also called Mus musculus Syntenin; not shown: glutathione S-transferase encoded by vector pGEX-3X (Pharmacia)
T2 chain: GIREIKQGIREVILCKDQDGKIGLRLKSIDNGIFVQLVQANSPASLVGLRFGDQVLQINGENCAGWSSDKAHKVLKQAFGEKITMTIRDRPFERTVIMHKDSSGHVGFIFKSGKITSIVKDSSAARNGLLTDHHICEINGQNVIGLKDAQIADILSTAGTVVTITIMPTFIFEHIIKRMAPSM
Briefly: A/G plate assays, Table 2 matrix.

The target in experiment [3] is T3, KIAA0807 (PDZ domain)-GST fusion protein (human, UniProt Q6P0Q8 1104-1192).
T3 construct: also called K807; KIAA807; not shown: glutathione S-transferase encoded by vector pGEX-3X (Pharmacia)
T3 sequence: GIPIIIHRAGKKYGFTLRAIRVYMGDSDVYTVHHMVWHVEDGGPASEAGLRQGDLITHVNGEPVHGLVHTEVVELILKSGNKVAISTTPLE
Kind of experiment: G assay on KIAA0807:GST fusion protein, 1 uM labeled peptide.

In experiment [4] the target is T4, GST-TAX-IP43 PDZ domain fusion protein (human, UniProt Q13884 109-180).
T4 construct: also called TAX43; not shown: glutathione S-transferase encoded by vector pGEX-3X (Pharmacia)
T4 sequence: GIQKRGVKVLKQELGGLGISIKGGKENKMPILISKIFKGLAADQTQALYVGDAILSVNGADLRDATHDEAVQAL
Kind of experiment: A/G plate assays, Table 2 matrix.

Experiment [5] has as its target T5, GST-cytohesin binding protein PDZ domain fusion protein (Homo sapiens (Human), UniProt O60759 74-165).
T5 construct: also called CBP; not shown: glutathione S-transferase encoded by vector pGEX-3X (Pharmacia)
T5 sequence: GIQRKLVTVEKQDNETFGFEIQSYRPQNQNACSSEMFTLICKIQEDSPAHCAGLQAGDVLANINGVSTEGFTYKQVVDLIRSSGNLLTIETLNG
Briefly: A/G plate assays, Table 2 matrix.

For experiment [6], the target named is T6, GST-DLG5 (p-dlg) PDZ domain fusion protein (Human, UniProt Q8TDM6 1343-1583).
T6 construct: also called Human discs large protein p-dlg; not shown: glutathione S-transferase encoded by vector pGEX-3X (Pharmacia)
T6 sequence: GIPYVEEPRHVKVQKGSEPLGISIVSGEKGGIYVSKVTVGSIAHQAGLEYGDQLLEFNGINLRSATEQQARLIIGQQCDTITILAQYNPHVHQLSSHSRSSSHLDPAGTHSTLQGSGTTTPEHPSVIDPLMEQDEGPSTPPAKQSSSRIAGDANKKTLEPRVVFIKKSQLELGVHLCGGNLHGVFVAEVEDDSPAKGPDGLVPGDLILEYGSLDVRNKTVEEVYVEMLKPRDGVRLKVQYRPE
Kind of experiment: A/G plate assays, Table 2 matrix.

Experiment [7] addresses T3, KIAA0807 (PDZ domain)-GST fusion protein. Briefly: G assay on KIAA0807:GST fusion protein, 10 uM labeled peptide.

Ends that are not written are not given here. * marks the point of attachment. Biotin = O=C1N[C@H]2[C@H](CS[C@H]2CCCCC(=O)*)N1

Take Biotin-TTNNNPNSAVNIKKIFTDV [KV1.3 C-terminal peptide AA33L, biotinylated]: the binding result in experiment [1] is given as “binds”.

For the molecule Biotin-QFMTADETRNLQNVDMKIGV (also called CD44 (long form)) [CD44 C-terminal peptide AA9L, biotinylated], in experiment [2], the binding result was “binds”. For Biotin-PSWRRSSLSESENATSLTTF (also called CXCR5) [BLR-1 C-terminal peptide AA45L, biotinylated], in experiment [3], the binding result is “binds”.

B1: Spectrin (beta) C-terminal peptide AA32L, biotinylated (peptide)
peptide: Biotin-SFPPCGHRENVPGQSLVSFV
notes: Marked (S), sticky; also called Spectrin beta (S); Spectrin β
B1: the binding result in experiment [4], in experiment [5] and in experiment [6] was “binds” throughout. With Biotin-LASKSAEEGKQIPDSLSTDL [DOCK2 C-terminal peptide AA40L, biotinylated], the binding result in experiment [7] was “binds”.

Source of the values: patent US20050037969A1 (ARBOR VITA, published 2005).
